System: peptide library, one residue held at a place counted from the S/T acceptor
Test: relative phosphorylation of the sub-library (ratio to the mean residue at this position); higher = residue favoured
In short: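 Relative sub-library phosphorylation, a ratio to the mean residue at that position, was obtained by phosphorimaging and densitometry of spots on streptavidin membranes. Before capture, purified recombinant kinases were incubated for 90 min under kinase-specific conditions with 50 μM biotinylated degenerate peptide sub-libraries and 50 μM ATP spiked with γ-32P-ATP. Each sub-library fixed one residue at one position around a central Ser/Thr.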

Sequence of GRK4, construct: Full length, human (P32298 whole entry, looked up): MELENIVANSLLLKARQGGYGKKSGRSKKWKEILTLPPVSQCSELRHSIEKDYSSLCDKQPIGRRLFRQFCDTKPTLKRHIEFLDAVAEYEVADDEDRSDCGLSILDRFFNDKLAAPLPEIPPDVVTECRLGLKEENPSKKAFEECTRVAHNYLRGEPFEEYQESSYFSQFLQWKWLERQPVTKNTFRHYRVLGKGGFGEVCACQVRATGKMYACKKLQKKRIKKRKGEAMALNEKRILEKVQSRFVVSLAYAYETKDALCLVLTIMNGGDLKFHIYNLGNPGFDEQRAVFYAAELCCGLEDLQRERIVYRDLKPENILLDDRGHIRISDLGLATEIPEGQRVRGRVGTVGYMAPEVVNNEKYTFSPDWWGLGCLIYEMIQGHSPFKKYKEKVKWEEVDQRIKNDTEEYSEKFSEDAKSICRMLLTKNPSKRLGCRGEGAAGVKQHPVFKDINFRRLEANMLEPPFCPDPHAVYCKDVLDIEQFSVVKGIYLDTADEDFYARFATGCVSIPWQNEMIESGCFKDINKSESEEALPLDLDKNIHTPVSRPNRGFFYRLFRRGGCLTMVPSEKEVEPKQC
Sequence of BMP2K, construct: aa37-345, human (Q9NSY1 37-345, looked up): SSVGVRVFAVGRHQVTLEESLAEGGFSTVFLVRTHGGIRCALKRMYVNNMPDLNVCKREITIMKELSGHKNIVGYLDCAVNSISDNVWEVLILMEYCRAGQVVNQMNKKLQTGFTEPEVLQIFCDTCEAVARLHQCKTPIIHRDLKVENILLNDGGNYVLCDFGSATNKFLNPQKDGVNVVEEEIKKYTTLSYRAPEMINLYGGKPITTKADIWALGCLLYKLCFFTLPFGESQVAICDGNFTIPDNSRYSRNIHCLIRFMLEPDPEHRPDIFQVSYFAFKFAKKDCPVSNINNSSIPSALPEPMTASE
Sequence of CILK1, construct: Full length, human (Q9UPZ9 whole entry, looked up): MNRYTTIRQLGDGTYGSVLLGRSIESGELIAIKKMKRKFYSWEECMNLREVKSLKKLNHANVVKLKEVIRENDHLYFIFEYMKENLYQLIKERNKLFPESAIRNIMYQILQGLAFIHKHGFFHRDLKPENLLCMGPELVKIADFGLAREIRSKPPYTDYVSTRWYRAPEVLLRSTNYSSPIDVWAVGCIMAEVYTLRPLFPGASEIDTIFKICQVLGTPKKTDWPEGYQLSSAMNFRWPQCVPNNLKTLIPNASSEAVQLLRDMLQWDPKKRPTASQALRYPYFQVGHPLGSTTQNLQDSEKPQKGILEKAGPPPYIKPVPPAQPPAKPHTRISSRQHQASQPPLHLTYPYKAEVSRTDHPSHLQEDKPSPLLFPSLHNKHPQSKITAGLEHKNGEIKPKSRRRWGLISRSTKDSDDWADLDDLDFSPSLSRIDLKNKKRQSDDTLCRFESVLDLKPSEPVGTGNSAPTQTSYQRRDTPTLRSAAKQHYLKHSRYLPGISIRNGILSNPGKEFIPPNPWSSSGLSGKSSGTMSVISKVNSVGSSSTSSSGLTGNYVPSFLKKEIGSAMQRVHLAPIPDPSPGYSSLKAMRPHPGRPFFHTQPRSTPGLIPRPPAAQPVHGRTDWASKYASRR

GRK4, construct: Full length, human (from UniProt P32298)
relative phosphorylation
Conditions	at +1	at +2	at +3	at +4	at -1	at -2	at -3	at -4	at -5
A fixed	0.613	1.5	0.747	0.859	0.654	0.895	0.863	0.994	1
D fixed	0.683	1.24	1.53	1.65	1.57	2.39	1.88	1.75	1.83
E fixed	1.41	0.872	1.57	1.51	1.2	1.95	1.88	1.69	1.48
F fixed	1.52	1.23	1.51	1.17	0.998	0.992	0.902	0.854	0.992
G fixed	0.577	0.879	0.953	0.928	0.619	0.983	0.927	0.965	1.02
H fixed	0.879	0.954	0.99	0.911	1.92	0.855	0.911	0.897	0.991
I fixed	1.57	1.54	0.741	0.779	0.637	0.649	0.697	0.752	0.695
K fixed	0.455	0.414	0.432	0.614	0.492	0.547	0.612	0.778	0.89
L fixed	1.01	0.356	0.763	0.777	0.882	0.619	0.745	0.835	0.796
M fixed	1.44	0.717	0.918	0.894	0.792	0.681	0.858	0.874	0.794
N fixed	0.674	0.753	0.685	0.906	1.28	1.18	1.03	1.05	0.954
P fixed	0.249	0.522	0.928	1.3	0.607	0.77	1.2	0.977	0.892
Q fixed	1.28	0.613	0.662	0.903	0.805	0.872	0.912	0.839	0.86
R fixed	0.602	0.408	0.554	0.654	0.542	0.789	0.787	0.797	0.814
V fixed	1.75	1.85	0.782	0.855	1.21	0.71	0.721	0.812	0.773
W fixed	1.16	1.73	2.11	1.29	0.812	1.21	0.941	1.09	1.25
Y fixed	1.12	1.43	1.12	1	1.97	0.903	1.13	1.05	0.975
pThr fixed	1.45	0.994	1.12	2.32	0.656	3.34	3.2	1.75	1.4
pTyr fixed	1.46	1.33	1.25	1.81	1.73	3.38	2.82	2.06	1.71

BMP2K, construct: aa37-345, human (from UniProt Q9NSY1)
relative phosphorylation
Conditions	at +1	at +2	at +3	at +4	at -1	at -2	at -3	at -4	at -5
A fixed	0.537	1.05	0.882	0.9	0.668	0.84	1.54	1.11	0.639
D fixed	0.361	0.974	0.763	0.733	0.467	1.22	0.575	0.621	0.453
E fixed	0.338	0.938	0.68	0.806	0.428	0.942	0.684	0.871	0.45
F fixed	0.379	0.866	0.81	0.94	1.26	0.754	0.916	0.963	0.863
G fixed	10.2	0.959	1.4	0.987	0.76	0.579	0.812	1.04	0.565
H fixed	0.392	1.08	1.21	0.989	1.35	1	0.815	0.95	0.739
I fixed	0.351	0.716	0.716	0.769	0.852	0.713	1.26	1	1.92
K fixed	0.435	0.966	1.2	1.39	1.76	0.993	0.926	1.31	0.594
L fixed	0.349	0.699	0.841	0.801	1.17	0.96	0.901	1.15	1.39
M fixed	0.368	0.842	0.765	0.847	1.18	1.91	1.46	1.12	1.24
N fixed	0.46	1.62	1.28	1.06	0.717	1.17	0.843	0.845	0.61
P fixed	0.674	0.802	1.01	0.988	0.846	0.485	1.34	0.868	1.13
Q fixed	0.384	1.22	1.04	1.14	0.818	2.26	1.02	1.08	1.02
R fixed	0.605	1.37	1.51	1.54	1.36	1	1.03	1.29	1.55
V fixed	0.358	0.87	0.929	0.753	0.806	0.64	1.17	0.987	1.32
W fixed	0.431	1.06	0.963	1.26	0.984	0.676	0.832	0.81	0.794
Y fixed	0.414	0.964	1	1.1	1.58	0.872	0.897	0.977	1.73
pThr fixed	0.4	0.715	0.663	0.527	0.427	0.528	0.634	0.638	0.583
pTyr fixed	0.357	0.841	0.698	0.572	0.527	0.928	0.647	0.72	1.19

CILK1, construct: Full length, human (from UniProt Q9UPZ9)
relative phosphorylation
Conditions	at +1	at +2	at +3	at +4	at -1	at -2	at -3	at -4	at -5
A fixed	1.36	0.902	0.838	1.02	0.938	0.718	0.93	1.04	0.881
D fixed	0.474	1.08	0.774	0.815	0.661	0.491	0.557	0.803	1.07
E fixed	0.464	0.744	0.722	0.771	0.577	0.498	0.498	0.825	0.875
F fixed	0.972	0.992	0.98	0.809	0.675	0.559	0.567	0.922	0.991
G fixed	1.22	1.08	1.23	1.29	1.22	0.82	0.734	1.08	1.03
H fixed	0.668	1.27	1.22	1.25	1.04	0.615	0.662	0.982	1.1
I fixed	0.907	0.936	0.834	0.819	0.497	0.55	0.556	0.768	0.802
K fixed	0.752	0.968	1.33	1.09	1.63	1.09	1.07	1.21	1.1
L fixed	0.818	0.859	0.957	0.933	0.755	0.616	0.556	0.835	0.953
M fixed	0.929	0.967	0.877	0.926	1.13	0.652	0.709	1.03	0.929
N fixed	0.601	1.13	0.883	1.09	1.15	0.619	0.651	0.92	0.917
P fixed	3.85	0.907	1.15	1.22	1.36	4.79	1.09	1.19	1.04
Q fixed	0.751	1.07	1.07	1.11	1.46	0.938	0.794	1.03	1
R fixed	0.79	1.02	1.25	1.04	1.53	2.19	5.98	1.55	1.32
V fixed	0.877	0.781	0.799	0.739	0.694	0.555	0.515	0.791	0.776
W fixed	0.87	1.12	1.02	1.03	0.835	0.69	0.609	1.14	1.15
Y fixed	0.702	1.17	1.08	1.05	0.845	0.604	0.522	0.89	1.06
pThr fixed	0.722	0.66	0.828	1.06	0.459	0.561	0.625	0.828	0.807
pTyr fixed	0.711	0.992	0.796	0.93	0.513	0.514	0.564	0.68	0.841

From the supplement of paper PMC9876800
